Data reported in PMC11711316 (Nature Communications, 2025).

Legend:
[1] = target: T1, Rab3GAP2 (human, full length, C-terminal 3x-FLAG) (human, UniProt Q9H2M9 1-1393); experiment: SEC
T1 sequence (looked up): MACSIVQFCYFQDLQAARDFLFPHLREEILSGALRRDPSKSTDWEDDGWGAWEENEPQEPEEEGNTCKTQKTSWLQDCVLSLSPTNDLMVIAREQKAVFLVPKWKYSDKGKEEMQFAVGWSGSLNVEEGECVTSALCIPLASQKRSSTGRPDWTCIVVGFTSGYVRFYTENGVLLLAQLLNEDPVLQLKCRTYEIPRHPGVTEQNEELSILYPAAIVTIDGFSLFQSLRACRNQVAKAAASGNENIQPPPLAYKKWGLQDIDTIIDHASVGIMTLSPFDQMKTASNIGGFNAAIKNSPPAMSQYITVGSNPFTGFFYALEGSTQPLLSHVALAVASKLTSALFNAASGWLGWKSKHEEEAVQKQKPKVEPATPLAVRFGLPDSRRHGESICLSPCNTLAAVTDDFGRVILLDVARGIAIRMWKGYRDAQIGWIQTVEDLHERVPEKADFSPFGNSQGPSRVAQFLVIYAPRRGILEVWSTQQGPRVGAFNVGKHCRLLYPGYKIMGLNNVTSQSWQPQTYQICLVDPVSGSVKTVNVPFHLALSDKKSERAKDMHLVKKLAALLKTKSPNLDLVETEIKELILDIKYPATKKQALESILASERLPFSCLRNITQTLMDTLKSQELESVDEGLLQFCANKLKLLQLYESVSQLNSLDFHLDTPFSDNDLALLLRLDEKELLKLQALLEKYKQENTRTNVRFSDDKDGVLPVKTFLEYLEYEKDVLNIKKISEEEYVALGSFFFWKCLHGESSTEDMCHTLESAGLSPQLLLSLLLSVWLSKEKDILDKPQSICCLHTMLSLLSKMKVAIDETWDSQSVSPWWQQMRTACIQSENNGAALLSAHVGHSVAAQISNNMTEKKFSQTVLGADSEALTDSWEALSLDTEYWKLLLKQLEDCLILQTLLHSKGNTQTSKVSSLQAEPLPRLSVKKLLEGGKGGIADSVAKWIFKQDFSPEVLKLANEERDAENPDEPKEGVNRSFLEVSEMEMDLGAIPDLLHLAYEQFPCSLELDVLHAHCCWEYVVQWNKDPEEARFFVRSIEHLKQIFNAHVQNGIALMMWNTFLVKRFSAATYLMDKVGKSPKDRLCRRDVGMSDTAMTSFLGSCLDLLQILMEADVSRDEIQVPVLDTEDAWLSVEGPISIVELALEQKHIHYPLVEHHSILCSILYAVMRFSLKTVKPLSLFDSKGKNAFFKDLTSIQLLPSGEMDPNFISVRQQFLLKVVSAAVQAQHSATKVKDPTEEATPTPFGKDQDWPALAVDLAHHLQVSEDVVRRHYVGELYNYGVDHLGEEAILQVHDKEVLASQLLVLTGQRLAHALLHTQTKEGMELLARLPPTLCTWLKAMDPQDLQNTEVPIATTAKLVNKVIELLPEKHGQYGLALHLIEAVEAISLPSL

[2] = target: T2, Rab3GAP2N (N-terminal domain of Rab3GAP2, 1-544) (human, UniProt Q9H2M9 1-544); experiment: SEC
T2 sequence (looked up): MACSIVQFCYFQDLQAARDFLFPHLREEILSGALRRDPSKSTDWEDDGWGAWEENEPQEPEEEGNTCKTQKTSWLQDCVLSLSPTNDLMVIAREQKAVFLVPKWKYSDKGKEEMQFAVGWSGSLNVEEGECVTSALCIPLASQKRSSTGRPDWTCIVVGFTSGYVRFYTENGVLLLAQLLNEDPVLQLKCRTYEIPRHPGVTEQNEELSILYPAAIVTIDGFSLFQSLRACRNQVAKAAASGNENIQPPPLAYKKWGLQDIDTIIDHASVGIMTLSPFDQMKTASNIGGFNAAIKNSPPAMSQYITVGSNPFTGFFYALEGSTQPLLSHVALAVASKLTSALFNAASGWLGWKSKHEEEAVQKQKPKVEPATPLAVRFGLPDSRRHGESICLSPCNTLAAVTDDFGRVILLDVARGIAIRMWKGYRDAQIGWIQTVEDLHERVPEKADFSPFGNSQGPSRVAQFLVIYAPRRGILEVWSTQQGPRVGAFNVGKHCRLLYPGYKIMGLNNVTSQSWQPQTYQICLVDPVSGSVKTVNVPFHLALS

B1: Rab3GAP1 (human, full length, N-terminal TSP tag) (natural protein, UniProt Q15042 1-981, looked up)
chain: MAADSEPESEVFEITDFTTASEWERFISKVEEVLNDWKLIGNSLGKPLEKGIFTSGTWEEKSDEISFADFKFSVTHHYLVQESTDKEGKDELLEDVVPQSMQDLLGMNNDFPPRAHCLVRWYGLREFVVIAPAAHSDAVLSESKCNLLLSSVSIALGNTGCQVPLFVQIHHKWRRMYVGECQGPGVRTDFEMVHLRKVPNQYTHLSGLLDIFKSKIGCPLTPLPPVSIAIRFTYVLQDWQQYFWPQQPPDIDALVGGEVGGLEFGKLPFGACEDPISELHLATTWPHLTEGIIVDNDVYSDLDPIQAPHWSVRVRKAENPQCLLGDFVTEFFKICRRKESTDEILGRSAFEEEGKETADITHALSKLTEPASVPIHKLSVSNMVHTAKKKIRKHRGVEESPLNNDVLNTILLFLFPDAVSEKPLDGTTSTDNNNPPSESEDYNLYNQFKSAPSDSLTYKLALCLCMINFYHGGLKGVAHLWQEFVLEMRFRWENNFLIPGLASGPPDLRCCLLHQKLQMLNCCIERKKARDEGKKTSASDVTNIYPGDAGKAGDQLVPDNLKETDKEKGEVGKSWDSWSDSEEEFFECLSDTEELKGNGQESGKKGGPKEMANLRPEGRLYQHGKLTLLHNGEPLYIPVTQEPAPMTEDLLEEQSEVLAKLGTSAEGAHLRARMQSACLLSDMESFKAANPGCSLEDFVRWYSPRDYIEEEVIDEKGNVVLKGELSARMKIPSNMWVEAWETAKPIPARRQRRLFDDTREAEKVLHYLAIQKPADLARHLLPCVIHAAVLKVKEEESLENISSVKKIIKQIISHSSKVLHFPNPEDKKLEEIIHQITNVEALIARARSLKAKFGTEKCEQEEEKEDLERFVSCLLEQPEVLVTGAGRGHAGRIIHKLFVNAQRAAAMTPPEEELKRMGSPEERRQNSVSDFPPPAGREFILRTTVPRPAPYSKALPQRMYSVLTKEDFRLAGAFSSDTSFF
stoichiometry N [1]: 1 | stoichiometry N [2]: 1
